Like-named read-outs stand apart in the source and are kept apart here. Starred links: 1 amine or outer side, 2 acyl side, 3 side chain; linkers in the order of their positions; H or OH if unused. Non-standard residues stand in square brackets, D forms with d. No end group written: not given here. *: point of attachment. (Chx-CH2)Y = N-(cyclohexylmethyl)-Tyr, O=C([C@H](Cc1ccc(O[*:3])cc1)N(CC1CCCCC1)[*:1])[*:2]; 4‑isoquinolinoyl = 4-isoquinolinoyl N-terminal acyl group, O=C(c1cncc2ccccc12)*; Phe(4-CONH2) = NC(=O)c1ccc(C[C@H](N)C(=O)O)cc1; Phe(4-NH2) = Nc1ccc(C[C@H](N)C(=O)O)cc1; dNMeY = CN[C@H](Cc1ccc(O)cc1)C(=O)O; Chg = N[C@H](C(=O)O)C1CCCCC1; Tfa = O=C(C(F)(F)F)*
Key:
[1] = target: T1, human factor Xa (Enzyme Research Laboratories, Inc.) (human, UniProt P00742 41-179; P00742 235-488, limits assumed); test: chromogenic FXa inhibition
T1 sequence (P00742 41-179 limits assumed, chain 1 of 2): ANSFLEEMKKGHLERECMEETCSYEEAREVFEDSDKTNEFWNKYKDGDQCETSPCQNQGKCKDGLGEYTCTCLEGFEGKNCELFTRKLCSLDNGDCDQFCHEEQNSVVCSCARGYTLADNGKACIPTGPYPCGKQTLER
T1 sequence (P00742 235-488 limits assumed, chain 2 of 2): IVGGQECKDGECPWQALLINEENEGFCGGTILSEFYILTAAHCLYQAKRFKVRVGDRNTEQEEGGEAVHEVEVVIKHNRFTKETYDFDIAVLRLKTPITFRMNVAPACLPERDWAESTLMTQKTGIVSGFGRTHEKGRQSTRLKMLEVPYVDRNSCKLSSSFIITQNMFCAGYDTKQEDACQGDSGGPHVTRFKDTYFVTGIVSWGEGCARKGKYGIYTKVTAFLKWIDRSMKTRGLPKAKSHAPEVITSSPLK
Method in brief: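 Human FXa (0.5 nM) preincubated 10 min with inhibitor in TBS-P (pH 7.8, 200 mM NaCl, PEG-8000), then S-2765 added (140 μM). Initial hydrolysis rate read at 405 nm, 25° C.; IC50 by linear regression of relative rate vs log concentration.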

[2] = target: T1, human factor Xa (Enzyme Research …); test: chromogenic FXa inhibition; remark: listed apart in the source
Protocol: TBS-P buffer (50 mM Tris-Cl, pH 7.8, 200 mM NaCl, 0.05% (w/v) PEG-8000, 0.02% (w/v) NaN_3) was used for this assay. The IC$50$ was determined by combining in appropriate wells of a Costar half-area microtiter plate 25 μl human factor Xa (Enzyme Research Laboratories, Inc.; South Bend Ind.) in TBS-P; 40 μl 10% (v/v) DMSO in TBS-P (uninhibited control) or various concentrations of a peptide to be tested diluted in 10% (v/v) DMSO in TBS-P; and substrate S-2765 (Nα-benzyloxycarbonyl-D-Arg-Gly-L-Arg-p-nitroanilide; Kabi Pharmacia, Inc.; Franklin Ohio) in TBS-P.
The assays were performed by pre-incubating the peptide inhibitor plus enzyme for 10 min, then the assay was initiated by adding substrate to obtain a final volume of 100 μl. The initial velocity of chromogenic substrate hydrolysis was measured by the change in absorbance at 405 nm using a Bio-tek Instruments kinetic plate reader (Ceres UV900HDi) at 25° C. during the linear portion of the time course (usually 1–5 min after addition of substrate). The concentration of inhibitor that caused a 50% decrease in the rate of substrate hydrolysis was predicted by linear regression after plotting the relative rates of hydrolysis (compared to the uninhibited control) versus the log of the peptide concentration. The enzyme concentration was 0.5 nM and substrate concentration was 140 μM.

Row | Binder | Ki [1] [µM] | Ki [2] [µM]
1 | XIRLP (N-term Ac; N-(Et-CH═C(CH3)-CH2) on Y1; C-term NH2) [Ac-(Et-CH═C(CH3)-CH2)Y-I-R-L-P-NH2] | < 100 | 
2 | YIRVMNHR-NH2 [Y-I-R-V-M-N-H-R-NH2] | < 100 | 
3 | {4‑isoquinolinoyl}-[Phe(4-NH2)][Chg]RLP-NH2 (SMILES CC(C)C[C@H](NC(=O)[C@H](CCCNC(=N)N)NC(=O)[C@@H](NC(=O)[C@H](Cc1ccc(N)cc1)NC(=O)c1cncc2ccccc12)C1CCCCC1)C(=O)N1CCC[C@H]1C(N)=O) [(4-isoquinolinoyl)-Phe(pNH2)-Chg-Arg-Leu-Pro-NH2] |  | < 100
4 | XIRLP (N-term Ac; N-(3,3-DiMe-nPentyl) on Y1; Y1=Y(SO3H); C-term NH2) [Ac-(3,3-DiMe-nPentyl)Y(SO3H)-I-R-L-P-NH2] | < 100 | 
5 | XIRLP (N-term Ac; N-(1,2,3,6-4H-Bzl) on Y1; Y1=Y(SO3H); C-term NH2) [Ac-(1,2,3,6-4H-Bzl)Y(SO3H)-I-R-L-P-NH2] | < 100 | 
6 | XIRLP (N-(2-Me-nBu) on Y1; C-term NH2) [(2-Me-nBu)Y-I-R-L-P-NH2] | < 100 | 
7 | XIRLP (N-term Ac; N-(2-CF3-Bzl) on Y1; Y1=Y(SO3H); C-term NH2) [Ac-(2-CF3-Bzl)Y(SO3H)-I-R-L-P-NH2] | < 100 | 
8 | XIRLP (N-(2-Me-nPentyl) on Y1; C-term NH2) [(2-Me-nPentyl)Y-I-R-L-P-NH2] | < 100 | 
9 | XIRLP (Y1=Y(3,5-Br); C-term NH2) [Y(3,5-Br)-I-R-L-P-NH2] | < 100 | 
10 | XIRLP (N-term Ac; N-(Cyclopropyl-CH2) on Y1; C-term NH2) [Ac-(Cyclopropyl-CH2)Y-I-R-L-P-NH2] | < 100 | 
11 | XIRLP (N-term Ac; N-(3,5,5-Me-3-nHexyl) on Y1; C-term NH2) [Ac-(3,5,5-Me-3-nHexyl)Y-I-R-L-P-NH2] | < 100 | 
12 | {2‑methylbenzyl}-[Phe(4-NH2)][Chg]RLP-NH2 [(2-methylbenzyl)-Phe(pNH2)-Chg-Arg-Leu-Pro-NH2] |  | < 100
13 | [dNMeY]IRLP-NH2 [(Me)y-I-R-L-P-NH2] | < 100 | 
14 | XIRLP (N-term Ac; N-(1,2,3,6-4H-Bzl) on Y1; C-term NH2) [Ac-(1,2,3,6-4H-Bzl)Y-I-R-L-P-NH2] | < 100 | 
15 | XIRLP (N-(2-Me-Bzl) on Y1; C-term NH2) [(2-Me-Bzl)Y-I-R-L-P-NH2] | < 100 | 
16 | XIRLP (N-(2-CF3-Bzl) on Y1; C-term NH2) [(2-CF3-Bzl)Y-I-R-L-P-NH2] | < 100 | 
17 | XIRLP (N-term Ac; N-(2-Me-nPentyl) on Y1; Y1=Y(SO3H); C-term NH2) [Ac-(2-Me-nPentyl)Y(SO3H)-I-R-L-P-NH2] | < 100 | 
18 | Ac-[Phe(4-NH2)][Chg]RLP-NH2 (SMILES CC(=O)N[C@@H](Cc1ccc(N)cc1)C(=O)N[C@H](C(=O)N[C@@H](CCCNC(=N)N)C(=O)N[C@@H](CC(C)C)C(=O)N1CCC[C@H]1C(N)=O)C1CCCCC1, also called Ac-Phe(pNH2)-Chg-Arg-Leu-Pro-NH2) [Ac-F(pNH2)-Chg-R-L-P-NH2] | < 100 | < 100
19 | XIRLP (N-(2-Et-nBu) on Y1; C-term NH2) [(2-Et-nBu)Y-I-R-L-P-NH2] | < 100 | 
20 | YIRYRNPI-NH2 [Y-I-R-Y-R-N-P-I-NH2] | < 100 | 
21 | Ac-[Phe(4-CONH2)][Chg]RLP-NH2 (SMILES CC(=O)N[C@@H](Cc1ccc(C(N)=O)cc1)C(=O)N[C@H](C(=O)N[C@@H](CCCNC(=N)N)C(=O)N[C@@H](CC(C)C)C(=O)N1CCC[C@H]1C(N)=O)C1CCCCC1, also called Ac-Phe(pCONH2)-Chg-R-L-P-NH2; Ac-Phe(p-CONH2)-Chg-Arg-Leu-Pro-NH2) [Ac-F(pCONH2)-Chg-R-L-P-NH2] | < 100 | < 100
22 | [dY][Chg]RLP-NH2 (also called D-Tyr-Chg-Arg-Leu-Pro-NH2) [y-Chg-R-L-P-NH2] | < 100 | < 100
23 | Ac-[(Chx-CH2)Y][Chg]RLP-NH2 [Ac-(Chx-CH2)Tyr-Chg-Arg-Leu-Pro-NH2] |  | < 100
24 | Ac-W[Chg]RLP-NH2 (SMILES CC(=O)N[C@@H](Cc1c[nH]c2ccccc12)C(=O)N[C@H](C(=O)N[C@@H](CCCNC(=N)N)C(=O)N[C@@H](CC(C)C)C(=O)N1CCC[C@H]1C(N)=O)C1CCCCC1, also called Ac-Trp-Chg-Arg-Leu-Pro-NH2) [Ac-W-Chg-R-L-P-NH2] | < 100 | < 100
25 | Tfa-Y[Chg]RLP-NH2 [Tfa-Y-Chg-R-L-P-NH2] | < 100 | < 100

Source: patent US6759384 (AVENTIS PHARMACEUTICALS, dated 2004)
